Measurements: patent US8088892B2, “Inhibitors of proteins from the Rho-GEF family” (Centre National de la Recherche Scientifique (C.N.R.S.), priority 2002, dated 2012)

How the values were obtained:
[1] = tested on: ectopically expressed TrioGEFD2 in PC12 cells; assay: NGF-induced neurite outgrowth in PC12 cells expressing TrioGEFD2; type: cell-based; settings: PC12 co-transfected with TrioGEFD2, NGF 50 ng/ml 16 hours
Description: FIG. 5C represents the inhibition by TRIPα of the TrioGEFD2 effect in neuronal morphology. Immunofluorescence images of PC12 cells co-transfected with HA-TrioGEFD2 and either GFP-TRIPα (panels d, e, f) or GFP alone panels a, b, c) are shown. After 48 hours of expression, cells were treated for 16 hours with NGF (nerve growth factor) (50 ng/ml) and fixed. Expression of GFP and GFP-TRIPα was directly visualised (a, d) whereas overexpressed TrioGEFD2 was detected using the 12CA5 anti-HA antibody followed by AMCA-conjugated anti-mouse IgG (b, e). Filamentous actin was stained with Rhodamine-conjugated Phalloidin (c, f). Scale bar: 20 μm.
Cells were transfected with HA-tagged TrioGEFD2 (left side of the figure), myc-tagged KalGEFD2 (middle of the figure) or RhoAV14 (a constitutively active mutant of RhoA) (right side of the figure), and with either GFP-TRIPα (white bars), GFP-TRIPβ (hatched bars) or GFP alone (black bars). Cells were processed as described in FIG. 5C and the number of co-transfected cells with neurites was counted.
Numerous reports have established Rho-GTPases as key regulators of neuronal morphology (Luo, 2000). In neuronal cell lines, activation of RhoG, Rac and Cdc42 induces neurite outgrowth, while RhoA stimulation antagonises this effect by promoting neurite retraction (Katoh et al., 2000; Kozma et al., 1997; Yamaguchi et al., 2001). The PC12 cell line is a useful cellular model for studying Nerve Growth Factor (NGF)-induced neuronal differentiation. PC12-E2 cells were plated on collagen-coated 12 mm coverslips as described previously (Estrach et al., 2002) and transfected with the Lipofectamine Plus reagent (Life Technologies) according to the manufacturer's instructions. After transfection and differentiation with NGF (Promega, 50 ng/ml in DMEM medium supplemented with 0.5% horse serum (HS)) for 16 hours, PC12 cells were fixed and permeabilised as described (Estrach et al., 2002). […] Images were recorded using a Hamamatsu CCD camera. All transfections were repeated at least three times, and an average of 200 cells was counted each time. […]

TrioDH2 = target: T1, TrioDH2 (Homo sapiens, UniProt O75962); assay: In vitro GEF assay on RhoA; type: biochemical; settings: 20-fold molar excess (8 μM) aptamer, 0.4 μM GST-DH2
T1 construct: TrioDH2 (a.a. 1848-2096); made in house
Description: A 20-fold molar excess (8 μM) of GST-aptamers TRIAPα, TRIAPβ (another TrioGEFD2 binding aptamer), TRIAPγ (another TrioGEFD2 binding aptamer) or the empty thioredoxine (Trx) were pre-incubated with 0.4 μM GST-GEFD2 (left side of FIG. 2A) or 0.4 μM GST-DH2 (right side of FIG. 2A), as indicated, before adding 0.3 μM of [^3H]GDP loaded GST-RhoA. The exchange activity was monitored by the decrease of [^3H]GDP bound-RhoA after 15 min (see Materials and Methods). The amount of [^3H]GDP bound-RhoA incubated without GEF (first bar on the left) was defined as 100% The values and errors bars were calculated from at least three independent experiments.
An in vitro guanine nucleotide exchange (GEF) assay was used to test whether the TrioGEFD2-binding aptamers could inhibit the catalytic activity of TrioGEFD2 towards RhoA. For this purpose, the aptamers TRIAPα, TRIAPβ and TRIAPγ (including the Trx gene) were excised from pEG202 as EcoRI/NotI fragments and cloned into pGEX4T1 EcoRI/NotI. The aptamers were then expressed and purified from bacteria as GST fusion proteins, using standard procedures (Smith and Johnson, 1988). […] The catalytic activity of TrioGEFD2 was thus measured by the decrease of the GTPase-associated radioactivity. The results are expressed as the ratio “exchange after 15 min over exchange after 0 min” (% bound [^3H]GDP-RhoA). […]

| Inhibition of TrioDH2 exchange activity on RhoA in vitro (TrioDH2) | Molecule | Reversion of TrioGEFD2 inhibition of NGF-induced neurite outgrowth [1] | Inhibition of TrioDH2 exchange activity on RhoA in vitro (TrioDH2; listed as GST-TRIAPα) |
| --- | --- | --- | --- |
| – | AREGADGAICGYNLATLVMLGPSERVFCPLCEPCSSDIYELM [TRIPα, 42-amino acid peptide corresponding to the variable region of TRIAPα] | only the TrioGEFD2 effect is reversed | – |
| inhibits | TRIAPα: aptamer of 154 amino acids: variable region of 42 amino acids inserted into the thioredoxin protein; tested as GST fusion (protein) MSDKIIHLTDDSFDTDVLKADGAILVDFWAEWCGPAREGADGAICGYNLATLVMLGPSERVFCPLCEPCSSDIYELMGPCKMIAPILDEIADEYQGKLTVAKLNIDQNPGTAPKYGIRGIPTLLLFKNGEVASATKVGALSKGQLKEFLDANLA | – | inhibited both TrioGEFD2 and TrioDH2 exchange activities |
